Reference: paper PMC8287961

Molecular target: KAP1 (UniProt Q13263)
Test: GFP-Trap IP from nuclear lysate, coomassie gel
Conditions: reference: GFP-HP1β wild type; sites S89,S91

Question: For “HP1β (from UniProt P83917) GFP-HP1β S89/91A”, which “binding against the reference” value is on record?
Answer: weaker
